Substitutions are numbered along the chain they refer to. Where “and” joins values, the source holds several entries; their conditions need not be identical. Equal values may be shown once.
T1: recombinant human ENTPD2 (residues 29-462, Y350A mutant) used in crystallographic studies (human, UniProt Q9Y5L3 29-462, N-linked glycosylation observed at Asn129, Asn294, Asn378 and Asn443)
T1 construct: also called human ENTPD2 Y350A; hENTPD2 Y350A
T1 sequence: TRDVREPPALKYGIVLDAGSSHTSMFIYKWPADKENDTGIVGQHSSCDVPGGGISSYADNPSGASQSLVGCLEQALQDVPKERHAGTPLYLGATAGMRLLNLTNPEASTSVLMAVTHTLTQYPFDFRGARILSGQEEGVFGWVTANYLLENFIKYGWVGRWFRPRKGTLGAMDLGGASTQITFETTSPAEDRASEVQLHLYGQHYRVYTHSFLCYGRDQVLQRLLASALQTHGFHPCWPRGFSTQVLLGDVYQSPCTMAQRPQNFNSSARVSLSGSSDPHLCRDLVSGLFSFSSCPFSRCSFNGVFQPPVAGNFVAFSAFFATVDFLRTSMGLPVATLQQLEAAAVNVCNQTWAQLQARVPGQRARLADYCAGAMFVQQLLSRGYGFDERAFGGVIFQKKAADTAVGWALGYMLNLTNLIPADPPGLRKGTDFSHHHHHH

T2: mouse ENTPD2 on cells (mouse, UniProt O55026 1-495)
T2 sequence: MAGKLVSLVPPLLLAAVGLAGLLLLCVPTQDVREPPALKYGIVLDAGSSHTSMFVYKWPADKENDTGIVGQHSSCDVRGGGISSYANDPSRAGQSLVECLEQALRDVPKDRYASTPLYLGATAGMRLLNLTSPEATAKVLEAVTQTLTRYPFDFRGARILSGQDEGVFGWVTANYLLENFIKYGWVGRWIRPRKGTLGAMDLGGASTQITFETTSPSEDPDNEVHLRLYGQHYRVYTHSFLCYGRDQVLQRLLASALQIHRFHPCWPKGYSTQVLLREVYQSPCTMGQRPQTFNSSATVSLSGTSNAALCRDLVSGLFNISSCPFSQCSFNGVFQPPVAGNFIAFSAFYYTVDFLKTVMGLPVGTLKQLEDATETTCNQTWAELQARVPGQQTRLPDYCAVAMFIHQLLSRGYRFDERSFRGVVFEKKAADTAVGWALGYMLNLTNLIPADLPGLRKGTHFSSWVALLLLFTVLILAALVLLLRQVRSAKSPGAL

B1: anti-human ENTPD2 FAb23 (Fab, V domains shown)
VH: EVQLQQFGAELVKPGASVKISCKASGYTFTDYNMDWVKQSHGKSLEWIGDINPKYDISTYNQQFKGKATLTVDKSSSTAYMELRSLTSEDTAVYYCARRGFFLYYGINYYYFDVWGAGTTVTVSS
VL: QIVLTQSPAIMSASLGEEITLTCSASSSVSYIHWYQQKSGTSPTLLIYSTSNLASGVPSRFSGSGSGTFYSLTISSVEAEDAADYYCHQWSSYPWTFGGGTKLEIKR
modifications: residue 1 of the light chain observed and modeled as pyroglutamate in the crystal structure
notes: Fab with human CH1 and human kappa constant regions; variable regions of mAb17; also called anti-hENTPD2 FAb23; anti-human ENTPD2 MAB17 Fab
B2: anti-mouse ENTPD2 mAb13 (antibody, mouse IgG2a, kappa, V domains shown)
VH: QVQLVQSGAELKQPGQSVKISCKASGYTFTHYGMNWVKQAPGQGLKWMGWINTDTGNPTYADDFKGRFVFSLDTSVSTAYLQISNLKNEDTATYYCVRYGTLYSGYGFFFDSWGQGTLVTVSS
VL: DIMMTQSPSSLSVSAGEKATITCKSSQSLFNSNTNKNYLNWYLQKPGQSPKLLFYYASTRHTGVPDRFIGSGSGTDFTLTITSVQDEDLADYYCQQWYSYPWTFGPGTKLEIKR
B3: anti-mouse ENTPD2 mAb14 (antibody, mouse IgG2a, kappa, V domains shown)
VH: B2 VH with T30W
VL: B2 VL
B4: anti-mouse ENTPD2 mAb15 (antibody, mouse IgG2a, kappa, V domains shown)
VH: B2 VH with T30H
VL: B2 VL
B5: anti-human ENTPD2 FAb22 (Fab, V domains shown)
VH: EVKLEQSGPGLVKPSQSLSLTCSVTGYSITSGYYWNWIRQFPGNKLEWMSYISYDGDNNYNPSLKNRISITRDTSKNQFFLKLSSVTTEDTATYYCAGGYYRYGLSYYYVMDYWGQGTSVTVSA
VL: DIKMTQSPASLAVSLGQRATISCKASQSVDYDGNSYMNWYQQKPGQPPKLLIYAASNLESGIPARFSGSGSGTDFTLNIHPVEEEDAATYYCQQSNEDPPTFGGGTKLELKR
notes: Fab with human CH1 and human kappa constant regions; CDRs of mAb16; also called anti-hENTPD2 FAb22
B6: anti-human ENTPD2 mAb1 (antibody, human IgG1, kappa)
heavy: not shown
light: DIQLTQSPSSLSASVGDRVTITCSASSSVSYIHWFQQKPGKAPKLLIYSTSNLASGVPSRFSGSGSGTFFTLTISSLQPEDFATYFCHQWSSYPWTFGQGTKVEIKRTVAAPSVFIFPPSDEQLKSGTASVVCLLNNFYPREAKVQWKVDNALQSGNSQESVTEQDSKDSTYSLSSTLTLSKADYEKHKVYACEVTHQGLSSPVTKSFNRGEC

Key:
[1] = biological target: T1, recombinant human ENTPD2 (residues …); experiment: X-ray co-crystal structure
mouse ENTPD2 on cells = biological target: T2, mouse ENTPD2 on cells; experiment: cell-based or functional assay
[2] = biological target: human FcγRIIIa, V158 (high affinity variant) (human, UniProt P08637 17-254); experiment: cell-based or functional assay
Sequence of human FcγRIIIa, V158 (high affinity variant) (P08637 other isoform, or with tags, fused parts or gaps mutant limits assumed): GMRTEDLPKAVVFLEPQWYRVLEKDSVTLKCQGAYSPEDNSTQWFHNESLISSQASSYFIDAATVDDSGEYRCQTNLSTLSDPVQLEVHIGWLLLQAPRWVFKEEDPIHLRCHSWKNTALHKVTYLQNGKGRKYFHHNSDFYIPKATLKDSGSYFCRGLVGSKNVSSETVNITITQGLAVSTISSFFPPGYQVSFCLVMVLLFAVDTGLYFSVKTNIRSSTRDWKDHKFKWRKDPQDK

Row | Binder | binding result [1] | ENTPD2 Functional Assay IC50 (mouse ENTPD2 NIH/3T3 cell-based assay) (mouse ENTPD2 on cells) [nM] | further results
1 | B1 | binds | – | –
2 | B2 | – | 2.8 | –
3 | B3 | – | 4.6 | –
4 | B4 | – | 5.9 | –
5 | B5 | binds | – | –
6 | B6 | – | – | FcγRIIIa signaling, Jurkat NFAT-luciferase reporter cells with RKO target cells, EC50 [2]: 17.3 nM and 2.55 µg/mL

Source: patent publication US20220340685A1 (Novartis, published 2022)
